Series [1] is described as follows: nuclear/cytoplasmic fractionation blot and immunofluorescence. Conditions: glycan lost; control: control cells (sh-CTRL).
Series [2] is described as follows: western blot, PANC1 and PaTU8988. Conditions: glycan lost; control: sh-CTRL. For orientation: A western blot detects proteins with antibodies after separation by electrophoresis.
The nature of series [3]: cycloheximide chase, western blot. The settings on record: glycan lost; control: without BADGP.
Another series can be described thus: western blot. The settings on record: glycan lost; control: untreated.

B1: ZEB1: OGT knockdown (protein)
parent chain: MKVTNYNTVVETNSDSDDEDKLHIVEEESVTDAADCEGVPEDDLPTDQTVLPGRSSEREGNAKNCWEDDTGKEGQEILGPEAQADEAGCTVKDDECESDAENEQNHDPNVEEFLQQQDTAVIFPEAPEEDQRQGTPEASGHDENGTPDAFSQLLTCPYCDRGYKRFTSLKEHIKYRHEKNEDNFSCSLCSYTFAYRTQLERHMTSHKSGRDQRHVTQSGCNRKFKCTECGKAFKYKHHLKEHLRIHSGEKPYECPNCKKRFSHSGSYSSHISSKKCISLIPVNGRPRTGLKTSQCSSPSLSASPGSPTRPQIRQKIENKPLQEQLSVNQIKTEPVDYEFKPIVVASGINCSTPLQNGVFTGGGPLQATSSPQGMVQAVVLPTVGLVSPISINLSDIQNVLKVAVDGNVIRQVLENNQANLASKEQETINASPIQQGGHSVISAISLPLVDQDGTTKIIINYSLEQPSQLQVVPQNLKKENPVATNSCKSEKLPEDLTVKSEKDKSFEGGVNDSTCLLCDDCPGDINALPELKHYDLKQPTQPPPLPAAEAEKPESSVSSATGDGNLSPSQPPLKNLLSLLKAYYALNAQPSAEELSKIADSVNLPLDVVKKWFEKMQAGQISVQSSEPSSPEPGKVNIPAKNNDQPQSANANEPQDSTVNLQSPLKMTNSPVLPVGSTTNGSRSSTPSPSPLNLSSSRNTQGYLYTAEGAQEEPQVEPLDLSLPKQQGELLERSTITSVYQNSVYSVQEEPLNLSCAKKEPQKDSCVTDSEPVVNVIPPSANPINIAIPTVTAQLPTIVAIADQNSVPCLRALAANKQTILIPQVAYTYSTTVSPAVQEPPLKVIQPNGNQDERQDTSSEGVSNVEDQNDSDSTPPKKKMRKTENGMYACDLCDKIFQKSSSLLRHKYEHTGKRPHECGICKKAFKHKHHLIEHMRLHSGEKPYQCDKCGKRFSHSGSYSQHMNHRYSYCKREAEERDSTEQEEAGPEILSNEHVGARASPSQGDSDERESLTREEDEDSEKEEEEEDKEMEELQEEKECEKPQGDEEEEEEEEEVEEEEVEEAENEGEEAKTEGLMKDDRAESQASSLGQKVGESSEQVSEEKTNEA
Regarding B1, the localisation_or_trafficking entry in series [1] is “decreases”.

B2: ZEB1: sh-OGT (protein)
parent chain: B1 parent chain
With B2, in series [2], the expression_or_secretion entry is “decreases”.

B3: ZEB1: BADGP (protein)
parent chain: B1 parent chain
On to B3, for which the degradation_or_half_life entry in series [3] is given as “decreases”. The expression_or_secretion entry in “western blot” is reported as “decreases”.

The values are drawn from paper PMC9274488.
